Reference: publication PMC11484851, “Structure of endothelin ETB receptor–Gi complex in a conformation stabilized by unique NPxxL motif” (Communications Biology, 2024)

Biological target: T1, wild-type Gαi1 subunit (human, UniProt P63096 1-354)
T1 construct: Gαi1, human, wild type; the α chain of m4; source: Sf9 or Hi5 insect cells, co-expressed with Gβ1 and Gγ2, purified as heterotrimer (TALON, SEC)
Experiment: cryo-EM structure; purified ET-1-bound ETBR mixed with 1.2 molar excess of wild-type or dominant negative Gi1 heterotrimer (20-24 °C, 2 h), apyrase and λ-phosphatase, then 1.2 molar excess of scFv16; complex purified on 2A5 anti-ETBR resin and by SEC in LMNG/CHS/GDN with 0.1 μM ET-1; single-particle cryo-EM
Conditions: both partners purified

T1 sequence (P63096 whole entry): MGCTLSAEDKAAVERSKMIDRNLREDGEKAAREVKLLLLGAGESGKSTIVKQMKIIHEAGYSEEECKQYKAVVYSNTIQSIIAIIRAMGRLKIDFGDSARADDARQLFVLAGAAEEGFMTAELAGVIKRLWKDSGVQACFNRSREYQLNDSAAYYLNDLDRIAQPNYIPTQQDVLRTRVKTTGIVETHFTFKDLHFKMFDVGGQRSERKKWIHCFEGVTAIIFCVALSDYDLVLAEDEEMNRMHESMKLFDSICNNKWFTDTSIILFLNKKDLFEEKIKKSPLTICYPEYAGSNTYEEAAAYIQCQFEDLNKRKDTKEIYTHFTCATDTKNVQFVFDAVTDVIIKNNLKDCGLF

B1: endothelin type B receptor, thermostabilized construct used for cryo-EM (R124Y, C396A, C400A, C405A, L66-S407 after 3C cleavage) (receptor, human, UniProt P24530 66-407, looked up)
chain: LAPAEVPKGDRTAGSPPRTISPPPCQGPIEIKETFKYINTVVSCLVFVLGIIGNSTLLYIIYKNKCMRNGPNILIASLALGDLLHIVIDIPINVYKLLAEDWPFGAEMCKLVPFIQKASVGITVLSLCALSIDRYRAVASWSRIKGIGVPKWTAVEIVLIWVVSVVLAVPEAIGFDIITMDYKGSYLRICLLHPVQKTAFMQFYKTAKDWWLFSFYFCLPLAITAFFYTLMTCEMLRKKSGMQIALNDHLKQRREVAKTVFCLVLVFALCWLPLHLSRILKLTLYNQNDPNRCELLSFLLVLDYIGINMASLNSCINPIALYLVSKRFKNAFKSALCCWAQS
notes: endothelin type B receptor (ETBR), human; C-terminus truncated at S407, followed by a 3C site and EGFP-His tag that was cleaved; Residues of the 3C sites probably remain after cleavage (GP before L66, LEVLFQ after S407); also called ETBR; ETB receptor; source: Sf9, purified (TALON, 3C cleavage, SEC) in LMNG/CHS with ET-1; not shown: Flag, N-terminal, cleaved; EGFP-His9, C-terminal, cleaved
B1: binds.
